Test results taken from patent US20170096487A1 (VENTANA MEDICAL SYSTEMS, published 2017).
Residue numbers refer to the chain shown, from its start. One block for each binder: values may come before it.

Columns and labels:
[1] = molecular target: T1, HER4 (UniProt Q15303 26-1308, limits assumed); assay: IHC on FFPE transfected HEK293 cells, Ventana Benchmark XT
T1 construct: whole, on cells
Protocol: (§1) The suitability of the newly developed HER3 monoclonal antibodies MAK<humanHER3> M-7.2.42 and MAK<humanHER3> M-7.3.8 was shown using FFPE cell line controls. Therefore HER1, HER2, HER3 or HER4 transfected or untransfected HEK293 cells, respectively, were fixed with 4% PBS buffered formaldehyde and were subsequently embedded in paraffin.
(§2) All staining procedures were performed on the Ventana Benchmark XT automated IHC stainer using Ventana buffers and reagents, i.e., amongst others, the standard cell conditioning 1 (CC1) reagent for sample preparation and ultraView DAB as detection system.
(§3) As obvious from FIG. 3 the newly developed HER3 monoclonal antibodies MAK<humanHER3> M-7.2.42 and MAK<humanHER3> M-7.3.8 show specific membrane staining only on HER3 transfected cells. HER1, HER2 and HER4-transfected cells and control cells are negative. HER3 monoclonal antibodies MAK<humanHER3> M-7.2.42 and MAK<humanHER3> M-7.3.8 show good IHC-staining with HER3 transfected cells if used according to standard protocols on the Ventana Benchmark XT analyzer (see FIG. 3, HER3 captioned cell staining).

[2] = molecular target: T2, HER2 (UniProt P04626 23-1255, limits assumed); assay: as above
T2 construct: whole, on cells
Protocol: as §1, §2, §3

[3] = molecular target: T3, biotinylated HER3 peptide (screening peptide with a sequence corresponding to the immunogen); assay: Biacore A100 SPR, antibody captured from hybridoma supernatant on anti-mouse Fc, streptavidin-grafted biotinylated HER3 peptide as analyte, 25 C
T3 construct: Synthetic peptide of HER3; also called HER3 antigen peptide; peptide-graft
Protocol: For selection of suitable antibodies, a kinetic screening was performed on hybridoma culture supernatants. The measurements were done using Biacore SPR technology. The CM5 series S sensor chip was mounted into an A100 instrument (GE Healthcare, Biacore) and was hydrodynamically addressed in HBSN buffer (10 mM HEPES pH 7.4, 150 mM NaCl) according to the manufacturer's instructions. The system buffer was HBS-ET (10 mM HEPES pH 7.4, 150 mM NaCl, 0.05% TWEEN 20). The sample buffer was the system buffer supplemented with 1 mg/ml CMD (Carboxymethyldextrane, Sigma #86524). The system was driven at 25° C.
10000 RU RAMIgGFC (relative units of rabbit-anti-mouse F(c)gamma-fragment of the respective mouse immunoglobulin G subclass/Jackson Laboratories) were immobilized according to the manufacturer's instructions using EDC/NHS chemistry on the flow cells FC1 (anti-mouse F(c)gamma of subclass 1), FC2, FC3 and FC4, respectively, on the sensitive spots 1, 2, 4 and 5 on each flow cell. The spots were deactivated using 1M ethanolamine.
The binding activity of antibodies against the HER3 peptide was kinetically tested. Antibodies were captured by a 1 min injection at 10 μl/min of crude hybridoma supernatants diluted 1:3 in sample buffer. Biotinylated Her-3 peptides were carefully singly grafted on streptavidin to enlarge the molecular weight of the complexes and to increase the mass sensitivity of the system. Since the antigen complex dissociation kd is independent of the analyte injection concentration, this is a legal method to increase the sensitivity of the system.

[4] = molecular target: T4, HER1 (UniProt P00533 25-1210, limits assumed); assay: Western blot on lysates of transfected HEK293 cells, RT and 37 C
T4 construct: whole, on cells; also called EGFR
Protocol: Lysates were prepared from several HEK293 control cell lines. The cells were transiently transfected with plasmids coding for HER1, HER2, HER3 or HER4. HEK293 cells transfected with the mammalian expression vector pRK5 were used as negative control. For western blotting 10 μg protein lysates were loaded per lane on 4-12% NuPage SDS gels (Invitrogen). Western blotting was performed according to standard protocols with standard NuPage buffers and reagents (Invitrogen). After blocking the membrane was incubated with MAK<humanHER3> M-7.2.42, MAK<humanHER3> M-7.3.8 or the HER3 monoclonal antibody DAK-H3-IC from Dako. MAK<humanHER3> M-7.2.42 and MAK<humanHER3> M-7.3.8 were used at a concentration of lng/ml. Primary antibody incubation was performed for 60 min at RT and at 37° C. HRP-conjugated anti-mouse Fab was used as secondary antibody. The dilution of DAK-H3-IC antibody was made as recommended by its manufacturer and the choice of secondary (detection) antibody was adapted as required. The membrane was developed with ECL (Amersham) and exposed to an x-ray film.

[5] = molecular target: T4, HER1; assay: IHC on FFPE transfected HEK293 cells, Ventana Benchmark XT
Protocol: as §1, §2, §3

T1 sequence (Q15303 26-1308 limits assumed): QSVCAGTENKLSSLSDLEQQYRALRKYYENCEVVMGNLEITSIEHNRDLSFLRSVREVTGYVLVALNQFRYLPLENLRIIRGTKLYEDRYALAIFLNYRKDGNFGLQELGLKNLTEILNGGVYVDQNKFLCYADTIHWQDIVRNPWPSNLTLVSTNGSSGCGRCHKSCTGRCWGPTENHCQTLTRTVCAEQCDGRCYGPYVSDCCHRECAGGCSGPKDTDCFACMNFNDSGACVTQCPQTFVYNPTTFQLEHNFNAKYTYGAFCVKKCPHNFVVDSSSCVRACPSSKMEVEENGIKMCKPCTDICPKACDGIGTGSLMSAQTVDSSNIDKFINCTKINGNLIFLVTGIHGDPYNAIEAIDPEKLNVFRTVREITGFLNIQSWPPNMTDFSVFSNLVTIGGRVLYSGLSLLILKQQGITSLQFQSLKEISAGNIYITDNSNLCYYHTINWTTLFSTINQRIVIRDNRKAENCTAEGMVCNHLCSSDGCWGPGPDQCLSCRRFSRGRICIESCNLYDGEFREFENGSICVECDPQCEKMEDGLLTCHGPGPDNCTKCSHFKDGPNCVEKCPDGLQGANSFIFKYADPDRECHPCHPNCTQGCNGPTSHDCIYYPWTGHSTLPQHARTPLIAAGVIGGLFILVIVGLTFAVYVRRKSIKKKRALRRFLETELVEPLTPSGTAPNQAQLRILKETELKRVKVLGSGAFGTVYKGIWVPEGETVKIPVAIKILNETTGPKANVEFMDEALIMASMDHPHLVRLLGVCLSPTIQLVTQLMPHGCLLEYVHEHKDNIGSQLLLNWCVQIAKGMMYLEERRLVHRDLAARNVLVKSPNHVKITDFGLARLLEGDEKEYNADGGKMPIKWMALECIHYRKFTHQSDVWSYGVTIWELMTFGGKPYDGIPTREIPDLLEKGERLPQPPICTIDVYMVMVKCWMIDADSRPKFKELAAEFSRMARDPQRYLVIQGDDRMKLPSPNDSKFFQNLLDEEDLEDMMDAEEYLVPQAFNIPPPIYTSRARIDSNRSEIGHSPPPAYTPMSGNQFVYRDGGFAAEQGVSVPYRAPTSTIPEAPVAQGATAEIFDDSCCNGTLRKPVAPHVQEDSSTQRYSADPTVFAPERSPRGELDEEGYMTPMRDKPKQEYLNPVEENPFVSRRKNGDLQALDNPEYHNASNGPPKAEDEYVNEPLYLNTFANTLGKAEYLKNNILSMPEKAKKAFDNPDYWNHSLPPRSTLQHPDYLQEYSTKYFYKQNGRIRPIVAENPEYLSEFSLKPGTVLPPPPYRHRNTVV

binding result [1]: no binding
binding result [2]: no binding
koff [3]: 4.26e-05 s⁻¹
t½ diss [3]: 4.52 h
B1: MAK<humanHER3> M-7.2.42 (antibody, V domains shown)
VH: EVQLLQSGPELVKPGASVKMSCKASGYTFTDYNLHWVKQSHGRTLEWIGYFNPYNGGTFYTQKFKDKATLTINKSSSTAYMELRSLTSEDSAVYYCTRRYFDGSSYFDYWGQGTTLTVSS
VL: DVLMTQTPLSLPVSLGDQASISCRSSQTIVHSNGNTYLEWYVQKPGQSLKLLIYKVSNRFSGVPDRFSGSGSGTDFTLKISRVEAEDLGVYYCFQGSHVPRAFGGGTKLEIKR
notes: Tested as crude hybridoma supernatant in the Biacore screening; also called HER3 monoclonal antibody MAK<humanHER3> M-7.2.42
binding result [4]: no binding (tested: lng/ml (so in the source))

binding result [5]: no binding
binding result [1]: no binding
binding result [2]: no binding
koff [3]: 2.66e-05 s⁻¹
t½ diss [3]: 7.25 h
B2: MAK<humanHER3> M-7.3.8 (antibody, V domains shown)
VH: B1 VH with L5Q, V12A, R43K, P53T, T58I, Q112R
VL: B1 VL with T7I, T28S, L49P, V99A, A102T
notes: Tested as crude hybridoma supernatant in the Biacore screening; also called antibody 7.3.8; HER3 monoclonal antibody MAK<humanHER3> M-7.3.8
